Data taken from patent publication US20090031441A1 (NATIONAL UNIVERSITY CORPORATION NAGOYA UNIVERSITY, published 2009).

T1: RGA (Arabidopsis DELLA protein), yeast two-hybrid prey in pGADT7 AD vector (Arabidopsis, UniProt Q9SLH3 1-587)
T1 construct: also called AtDELLA
T1 sequence (looked up): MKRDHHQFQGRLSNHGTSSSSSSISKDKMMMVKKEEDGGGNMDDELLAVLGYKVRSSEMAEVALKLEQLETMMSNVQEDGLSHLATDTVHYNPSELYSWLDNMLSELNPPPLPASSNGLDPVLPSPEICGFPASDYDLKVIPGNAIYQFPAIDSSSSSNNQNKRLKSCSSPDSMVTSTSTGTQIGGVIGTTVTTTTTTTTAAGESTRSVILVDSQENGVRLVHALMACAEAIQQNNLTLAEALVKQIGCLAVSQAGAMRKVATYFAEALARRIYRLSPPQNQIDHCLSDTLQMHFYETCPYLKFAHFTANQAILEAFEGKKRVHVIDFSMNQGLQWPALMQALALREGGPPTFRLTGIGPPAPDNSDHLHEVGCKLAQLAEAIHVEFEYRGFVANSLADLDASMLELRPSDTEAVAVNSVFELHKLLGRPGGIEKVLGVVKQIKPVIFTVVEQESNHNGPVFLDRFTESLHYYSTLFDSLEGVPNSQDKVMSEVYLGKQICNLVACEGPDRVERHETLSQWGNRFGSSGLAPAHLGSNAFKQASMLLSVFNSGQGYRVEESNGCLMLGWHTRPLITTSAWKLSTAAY

T2: RGL3 (Arabidopsis DELLA protein), yeast two-hybrid prey in pGADT7 AD vector (Arabidopsis, UniProt Q9LF53 1-523)
T2 construct: also called AtDELLA
T2 sequence (looked up): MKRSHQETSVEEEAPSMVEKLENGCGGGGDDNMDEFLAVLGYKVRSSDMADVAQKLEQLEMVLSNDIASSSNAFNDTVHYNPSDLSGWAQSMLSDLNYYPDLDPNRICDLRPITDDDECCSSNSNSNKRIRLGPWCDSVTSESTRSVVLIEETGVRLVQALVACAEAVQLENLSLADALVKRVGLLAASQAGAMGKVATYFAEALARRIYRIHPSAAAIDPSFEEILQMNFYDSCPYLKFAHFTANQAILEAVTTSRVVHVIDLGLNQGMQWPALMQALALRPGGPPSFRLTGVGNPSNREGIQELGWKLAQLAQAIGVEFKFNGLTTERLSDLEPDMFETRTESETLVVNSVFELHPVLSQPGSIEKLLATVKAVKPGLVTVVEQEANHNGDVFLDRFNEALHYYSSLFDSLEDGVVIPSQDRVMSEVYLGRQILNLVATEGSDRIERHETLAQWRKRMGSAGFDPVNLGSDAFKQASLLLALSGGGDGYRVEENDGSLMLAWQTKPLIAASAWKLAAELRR

B1: AtGID1a (At3g05120), yeast two-hybrid bait in pGBKT7 DNA-BD vector (receptor, not shown: small tags and cut ends)
chain: MAASDEVNLIESRTVVPLNTWVLISNFKVAYNILRRPDGTFNRHLAEYLDRKVTANANPVDGVFSFDVLIDRRINLLSRVYRPAYADQEQPPSILDLEKPVDGDIVPVILFFHGGSFAHSSANSAIYDTLCRRLVGLCKCVVVSVNYRRAPENPYPCAYDDGWIALNWVNSRSWLKSKKDSKVHIFLAGDSSGGNIAHNVALRAGESGIDVLGNILLNPMFGGNERTESEKSLDGKYFVTVRDRDWYWKAFLPEGEDREHPACNPFSPRGKSLEGVSFPKSLVVVAGLDLIRDWQLAYAEGLKKAGQEVKLMHLEKATVGFYLLPNNNHFHNVMDEISAFVNAEC
notes: Bait fusion for the Y2H assays (BD Matchmaker Two-hybrid System 3); also called Arabidopsis GID1
B2: AtGID1b (At3g63010), yeast two-hybrid bait in pGBKT7 DNA-BD vector (receptor, not shown: small tags and cut ends)
chain: MAGGNEVNLNECKRIVPLNTWVLISNFKLAYKVLRRPDGSFNRDLAEFLDRKVPANSFPLDGVFSFDHVDSTTNLLTRIYQPASLLHQTRHGTLELTKPLSTTEIVPVLIFFHGGSFTHSSANSAIYDTFCRRLVTICGVVVVSVDYRRSPEHRYPCAYDDGWNALNWVKSRVWLQSGKDSNVYVYLAGDSSGGNIAHNVAVRATNEGVKVLGNILLHPMFGGQERTQSEKTLDGKYFVTIQDRDWYWRAYLPEGEDRDHPACNPFGPRGQSLKGVNFPKSLVVVAGLDLVQDWQLAYVDGLKKTGLEVNLLYLKQATIGFYFLPNNDHFHCLMEELNKFVHSIEDSQSKSSPVLLTP
notes: Bait fusion for the Y2H assays; also called Arabidopsis GID1

How the values were obtained:
[1] = biological target: T1, RGA (Arabidopsis DELLA protein), yeast …; assay: yeast two-hybrid, AtGID1 bait and AtDELLA prey, 10^-5 M GA4 in medium; colony growth (Assay A) and beta-galactosidase activity (Assay B)
Experimental: (§1) Panel A) depicts AtGID1-AtDELLA interaction in the presence of GA in two types of yeast hybrid (Y2H) assays. Each AtGID1 was used as a bait while AtDELLA was a prey. GA₄ (10⁻⁵ M) was added to the medium. The bars indicates β-galactosidase activity when o-nitrophenol-β-D-galactopyranoside was used as a substrate (Assay B). The growth of each transformant in the defined medium for 2 days (Assay A) is shown beneath of each bar graph. The experiment was carried out in quadruplicate. The SD value shown in the figure was determined from three measurements. Panel B) depicts the dose response in AtGID1-RGA interaction in Assay B of Y2H. GA₄ (10⁻⁵ to 10⁻⁹ M) was added to the medium. The experiment was conducted in duplicates. The SD value shown in the figure was determined from three measurements. Panel C) depicts the results of an evaluation of the in vitro GA-binding potency of AtGID1 using AtDELLA. Left panel, 15 minutes after mixing AtGID1c (C), tritiated GA, with an excess amount of non-labeled GA (+) or without non-labeled GA (−). GAI (G) or RGA (R) was added, and then the GA-binding activity in each reaction mixture was measured according to the standard method. Recombinant protein originating from the vector (v) was used as a negative control. The experiment was carried out in duplicates. The SD value was determined from three measurements. Right panel, a profile of Western blotting for recombinant AtDELLA using an antibody to His tag. G, GAI; R, RGA; v, vector; M, molecular weight marker.
(§2) Arabidopsis has five DELLA proteins (RGA, GAI, RGL1, RGL2, and RGL3; collectively designated AtDELLA; Fleet, C. M., and Sun, T.-P. (2005) Curr. Opin. Plant Biol., 8, 77-85; Dill, A., and Sun, T. (2001) Genetics, 159, 777-785); therefore, there are 15 possible combinations of GID1/DELLA proteins. To verify the positive interactions between AtGID1-AtDELLA, two experiments were conducted using the yeast two hybrid (Y2H) system. […] In the second experiment (Assay B), β-galactosidase activity was measured, as reporter gene product of AtGID1-AtDELLA interactions. […]

[2] = biological target: T2, RGL3 (Arabidopsis DELLA protein), yeast …; assay: yeast two-hybrid system
Experimental: Arabidopsis has five DELLA proteins (RGA, GAI, RGL1, RGL2, and RGL3; collectively designated AtDELLA; Fleet, C. M., and Sun, T.-P. (2005) Curr. Opin. Plant Biol., 8, 77-85; Dill, A., and Sun, T. (2001) Genetics, 159, 777-785); therefore, there are 15 possible combinations of GID1/DELLA proteins. To verify the positive interactions between AtGID1-AtDELLA, two experiments were conducted using the yeast two hybrid (Y2H) system. In the first experiment (Assay A), a viable colony assay using a defined medium in which only positive clones would survive was carried out. In the second experiment (Assay B), β-galactosidase activity was measured, as reporter gene product of AtGID1-AtDELLA interactions.
BD Matchmaker Two-hybrid System 3 (Clontech, Palo Alto, Calif., USA; now part of Takara Bio) was used in the Y2H experiments. After confirming the PCR products of the AtGID1 genes by sequencing, PCR products were cloned into pGBKT7 DNA-BD shuttle vector to construct bait plasmids. Likewise, the entire coding region of each AtDELLA gene (GAI including EcoRI and XhoI sites; RGA including BamHI and XhoI sites; RGL1 including SmaI and SacI sites; RGL2 including SmaI and ClaI sites; RGL3 including SmaI and XhoI sites on the ends) was cloned into pGADT7 AD vector. The S. cerevisiae AH109 (MATa) strain or Y187 (MATα) strain was used, and DNA-BD and AD vector cassettes were used as negative controls. The details of the method used for the yeast assay are as described in the manufacturer's instructions (Yeast Protocols Handbook #PT3024-1; http://www.clontech.com/). Experiments were carried out four times independently. Similar results were obtained each time.

[3] = biological target: T2, RGL3 (Arabidopsis DELLA protein), yeast …; assay: yeast two-hybrid, AtGID1 bait and AtDELLA prey, 10^-5 M GA4 in medium; colony growth (Assay A) and beta-galactosidase activity (Assay B)
Experimental: as §1, §2

| Binder | binding result [1] | binding result [2] | binding result [3] |
| --- | --- | --- | --- |
| B1 | binds | binds | – |
| B2 | – | – | binds |
